This note sets out measurements from patent US20260049138A1 (Chugai, published 2026).

B1: GLS3000 S52P one-arm antibody (antibody, human IgG1, kappa, L234A L235A, N297A, name in Kabat numbering)
heavy: QVQLVESGGGVVQPGRSLRLSCAASGFTFSNAWMHWVRQAPGKGLEWVAQIKAKSNNYATYYAESVKGRFTISRDDSKNSLYLQMNSLKTEDTAVYYCRYVHYGAYYGVDAWGQGTTVTVSSASTKGPSVFPLAPSSKSTSGGTAALGCLVKDYFPEPVTVSWNSGALTSGVHTFPAVLQSSGLYSLSSVVTVPSSSLGTQTYICNVNHKPSNTKVDKKVEPKSCDKTHTCPPCPAPEAAGGPSVFLFPPKPKDTLMISRTPEVTCVVVDVSHEDPEVKFNWYVDGVEVHNAKTKPREEQYASTYRVVSVLTVLHQDWLNGKEYKCKVSNKALPAPIEKTISKAKGQPREPQVYTLPPSRCELTKNQVSLSCAVKGFYPSDIAVEWESNGQPENNYKTTPPVLDSDGSFFLVSKLTVDKSRWQQGNVFSCSVMHEALHNHYTQKSLSLSPDYKDDDDK
chain: EPKSSDKTHTCPPCPAPELLGGPSVFLFPPKPKDTLMISRTPEVTCVVVDVSHEDPEVKFNWYVDGVEVHNAKTKPREEQYNSTYRVVSVLTVLHQDWLNGKEYKCKVSNKALPAPIEKTISKAKGQPREPQVCTLPPSRDELTKNQVSLWCLVKGFYPSDIAVEWESNGQPENNYKTTPPVLDSDGSFFLYSKLTVDKSRWQQGNVFSCSVMHEALHNRYTQKSLSLSP
light: DIVMTQSPLSLPVTPGEPASISCRSSQSLVHSNRNTYLHWYQQKPGQAPRLLIYKVPNRFSGVPDRFSGSGSGTDFTLKISRVEAEDVGVYYCGQGTQVPYTFGQGTKLEIKRTVAAPSVFIFPPSDEQLKSGTASVVCLLNNFYPREAKVQWKVDNALQSGNSQESVTEQDSKDSTYSLSSTLTLSKADYEKHKVYACEVTHQGLSSPVTKSFNRGEC
B2: GLS3000 S56D one-arm antibody (antibody, human IgG1, kappa, L234A L235A, N297A, name in Kabat numbering)
heavy: QVQLVESGGGVVQPGRSLRLSCAASGFTFSNAWMHWVRQAPGKGLEWVAQIKAKSNNYATYYAESVKGRFTISRDDSKNSLYLQMNSLKTEDTAVYYCRYVHYGAYYGVDAWGQGTTVTVSSASTKGPSVFPLAPSSKSTSGGTAALGCLVKDYFPEPVTVSWNSGALTSGVHTFPAVLQSSGLYSLSSVVTVPSSSLGTQTYICNVNHKPSNTKVDKKVEPKSCDKTHTCPPCPAPEAAGGPSVFLFPPKPKDTLMISRTPEVTCVVVDVSHEDPEVKFNWYVDGVEVHNAKTKPREEQYASTYRVVSVLTVLHQDWLNGKEYKCKVSNKALPAPIEKTISKAKGQPREPQVYTLPPSRCELTKNQVSLSCAVKGFYPSDIAVEWESNGQPENNYKTTPPVLDSDGSFFLVSKLTVDKSRWQQGNVFSCSVMHEALHNHYTQKSLSLSPDYKDDDDK
chain: EPKSSDKTHTCPPCPAPELLGGPSVFLFPPKPKDTLMISRTPEVTCVVVDVSHEDPEVKFNWYVDGVEVHNAKTKPREEQYNSTYRVVSVLTVLHQDWLNGKEYKCKVSNKALPAPIEKTISKAKGQPREPQVCTLPPSRDELTKNQVSLWCLVKGFYPSDIAVEWESNGQPENNYKTTPPVLDSDGSFFLYSKLTVDKSRWQQGNVFSCSVMHEALHNRYTQKSLSLSP
light: DIVMTQSPLSLPVTPGEPASISCRSSQSLVHSNRNTYLHWYQQKPGQAPRLLIYKVSNRFDGVPDRFSGSGSGTDFTLKISRVEAEDVGVYYCGQGTQVPYTFGQGTKLEIKRTVAAPSVFIFPPSDEQLKSGTASVVCLLNNFYPREAKVQWKVDNALQSGNSQESVTEQDSKDSTYSLSSTLTLSKADYEKHKVYACEVTHQGLSSPVTKSFNRGEC
B3: GLS3000 S52Y one-arm antibody (antibody, human IgG1, kappa, L234A L235A, N297A, name in Kabat numbering)
heavy: QVQLVESGGGVVQPGRSLRLSCAASGFTFSNAWMHWVRQAPGKGLEWVAQIKAKSNNYATYYAESVKGRFTISRDDSKNSLYLQMNSLKTEDTAVYYCRYVHYGAYYGVDAWGQGTTVTVSSASTKGPSVFPLAPSSKSTSGGTAALGCLVKDYFPEPVTVSWNSGALTSGVHTFPAVLQSSGLYSLSSVVTVPSSSLGTQTYICNVNHKPSNTKVDKKVEPKSCDKTHTCPPCPAPEAAGGPSVFLFPPKPKDTLMISRTPEVTCVVVDVSHEDPEVKFNWYVDGVEVHNAKTKPREEQYASTYRVVSVLTVLHQDWLNGKEYKCKVSNKALPAPIEKTISKAKGQPREPQVYTLPPSRCELTKNQVSLSCAVKGFYPSDIAVEWESNGQPENNYKTTPPVLDSDGSFFLVSKLTVDKSRWQQGNVFSCSVMHEALHNHYTQKSLSLSPDYKDDDDK
chain: EPKSSDKTHTCPPCPAPELLGGPSVFLFPPKPKDTLMISRTPEVTCVVVDVSHEDPEVKFNWYVDGVEVHNAKTKPREEQYNSTYRVVSVLTVLHQDWLNGKEYKCKVSNKALPAPIEKTISKAKGQPREPQVCTLPPSRDELTKNQVSLWCLVKGFYPSDIAVEWESNGQPENNYKTTPPVLDSDGSFFLYSKLTVDKSRWQQGNVFSCSVMHEALHNRYTQKSLSLSP
light: DIVMTQSPLSLPVTPGEPASISCRSSQSLVHSNRNTYLHWYQQKPGQAPRLLIYKVYNRFSGVPDRFSGSGSGTDFTLKISRVEAEDVGVYYCGQGTQVPYTFGQGTKLEIKRTVAAPSVFIFPPSDEQLKSGTASVVCLLNNFYPREAKVQWKVDNALQSGNSQESVTEQDSKDSTYSLSSTLTLSKADYEKHKVYACEVTHQGLSSPVTKSFNRGEC
B4: GLS3000 S56A one-arm antibody (antibody, human IgG1, kappa, L234A L235A, N297A, name in Kabat numbering)
heavy: QVQLVESGGGVVQPGRSLRLSCAASGFTFSNAWMHWVRQAPGKGLEWVAQIKAKSNNYATYYAESVKGRFTISRDDSKNSLYLQMNSLKTEDTAVYYCRYVHYGAYYGVDAWGQGTTVTVSSASTKGPSVFPLAPSSKSTSGGTAALGCLVKDYFPEPVTVSWNSGALTSGVHTFPAVLQSSGLYSLSSVVTVPSSSLGTQTYICNVNHKPSNTKVDKKVEPKSCDKTHTCPPCPAPEAAGGPSVFLFPPKPKDTLMISRTPEVTCVVVDVSHEDPEVKFNWYVDGVEVHNAKTKPREEQYASTYRVVSVLTVLHQDWLNGKEYKCKVSNKALPAPIEKTISKAKGQPREPQVYTLPPSRCELTKNQVSLSCAVKGFYPSDIAVEWESNGQPENNYKTTPPVLDSDGSFFLVSKLTVDKSRWQQGNVFSCSVMHEALHNHYTQKSLSLSPDYKDDDDK
chain: EPKSSDKTHTCPPCPAPELLGGPSVFLFPPKPKDTLMISRTPEVTCVVVDVSHEDPEVKFNWYVDGVEVHNAKTKPREEQYNSTYRVVSVLTVLHQDWLNGKEYKCKVSNKALPAPIEKTISKAKGQPREPQVCTLPPSRDELTKNQVSLWCLVKGFYPSDIAVEWESNGQPENNYKTTPPVLDSDGSFFLYSKLTVDKSRWQQGNVFSCSVMHEALHNRYTQKSLSLSP
light: DIVMTQSPLSLPVTPGEPASISCRSSQSLVHSNRNTYLHWYQQKPGQAPRLLIYKVSNRFAGVPDRFSGSGSGTDFTLKISRVEAEDVGVYYCGQGTQVPYTFGQGTKLEIKRTVAAPSVFIFPPSDEQLKSGTASVVCLLNNFYPREAKVQWKVDNALQSGNSQESVTEQDSKDSTYSLSSTLTLSKADYEKHKVYACEVTHQGLSSPVTKSFNRGEC
B5: GLS3000 S52Q one-arm antibody (antibody, human IgG1, kappa, L234A L235A, N297A, name in Kabat numbering)
heavy: QVQLVESGGGVVQPGRSLRLSCAASGFTFSNAWMHWVRQAPGKGLEWVAQIKAKSNNYATYYAESVKGRFTISRDDSKNSLYLQMNSLKTEDTAVYYCRYVHYGAYYGVDAWGQGTTVTVSSASTKGPSVFPLAPSSKSTSGGTAALGCLVKDYFPEPVTVSWNSGALTSGVHTFPAVLQSSGLYSLSSVVTVPSSSLGTQTYICNVNHKPSNTKVDKKVEPKSCDKTHTCPPCPAPEAAGGPSVFLFPPKPKDTLMISRTPEVTCVVVDVSHEDPEVKFNWYVDGVEVHNAKTKPREEQYASTYRVVSVLTVLHQDWLNGKEYKCKVSNKALPAPIEKTISKAKGQPREPQVYTLPPSRCELTKNQVSLSCAVKGFYPSDIAVEWESNGQPENNYKTTPPVLDSDGSFFLVSKLTVDKSRWQQGNVFSCSVMHEALHNHYTQKSLSLSPDYKDDDDK
chain: EPKSSDKTHTCPPCPAPELLGGPSVFLFPPKPKDTLMISRTPEVTCVVVDVSHEDPEVKFNWYVDGVEVHNAKTKPREEQYNSTYRVVSVLTVLHQDWLNGKEYKCKVSNKALPAPIEKTISKAKGQPREPQVCTLPPSRDELTKNQVSLWCLVKGFYPSDIAVEWESNGQPENNYKTTPPVLDSDGSFFLYSKLTVDKSRWQQGNVFSCSVMHEALHNRYTQKSLSLSP
light: DIVMTQSPLSLPVTPGEPASISCRSSQSLVHSNRNTYLHWYQQKPGQAPRLLIYKVQNRFSGVPDRFSGSGSGTDFTLKISRVEAEDVGVYYCGQGTQVPYTFGQGTKLEIKRTVAAPSVFIFPPSDEQLKSGTASVVCLLNNFYPREAKVQWKVDNALQSGNSQESVTEQDSKDSTYSLSSTLTLSKADYEKHKVYACEVTHQGLSSPVTKSFNRGEC
B6: GLS3000 S56E one-arm antibody (antibody, human IgG1, kappa, L234A L235A, N297A, name in Kabat numbering)
heavy: QVQLVESGGGVVQPGRSLRLSCAASGFTFSNAWMHWVRQAPGKGLEWVAQIKAKSNNYATYYAESVKGRFTISRDDSKNSLYLQMNSLKTEDTAVYYCRYVHYGAYYGVDAWGQGTTVTVSSASTKGPSVFPLAPSSKSTSGGTAALGCLVKDYFPEPVTVSWNSGALTSGVHTFPAVLQSSGLYSLSSVVTVPSSSLGTQTYICNVNHKPSNTKVDKKVEPKSCDKTHTCPPCPAPEAAGGPSVFLFPPKPKDTLMISRTPEVTCVVVDVSHEDPEVKFNWYVDGVEVHNAKTKPREEQYASTYRVVSVLTVLHQDWLNGKEYKCKVSNKALPAPIEKTISKAKGQPREPQVYTLPPSRCELTKNQVSLSCAVKGFYPSDIAVEWESNGQPENNYKTTPPVLDSDGSFFLVSKLTVDKSRWQQGNVFSCSVMHEALHNHYTQKSLSLSPDYKDDDDK
chain: EPKSSDKTHTCPPCPAPELLGGPSVFLFPPKPKDTLMISRTPEVTCVVVDVSHEDPEVKFNWYVDGVEVHNAKTKPREEQYNSTYRVVSVLTVLHQDWLNGKEYKCKVSNKALPAPIEKTISKAKGQPREPQVCTLPPSRDELTKNQVSLWCLVKGFYPSDIAVEWESNGQPENNYKTTPPVLDSDGSFFLYSKLTVDKSRWQQGNVFSCSVMHEALHNRYTQKSLSLSP
light: DIVMTQSPLSLPVTPGEPASISCRSSQSLVHSNRNTYLHWYQQKPGQAPRLLIYKVSNRFEGVPDRFSGSGSGTDFTLKISRVEAEDVGVYYCGQGTQVPYTFGQGTKLEIKRTVAAPSVFIFPPSDEQLKSGTASVVCLLNNFYPREAKVQWKVDNALQSGNSQESVTEQDSKDSTYSLSSTLTLSKADYEKHKVYACEVTHQGLSSPVTKSFNRGEC

In the experiment the target is T1, CD3ε homodimer protein (human, UniProt P07766 23-126, limits assumed).
T1 construct: also called CD3 (CD3ε)
T1 sequence (P07766 23-126 limits assumed): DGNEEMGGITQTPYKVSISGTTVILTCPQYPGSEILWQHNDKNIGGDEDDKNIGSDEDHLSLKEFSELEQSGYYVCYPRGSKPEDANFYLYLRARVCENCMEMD
Kind of experiment: SPR Biacore T200, CD3ε homodimer on chip.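 Further: Light-chain single-residue variant antibodies injected over amine-coupled CD3ε homodimer on a CM4 chip at 25 °C, bound amount divided by that of the GLS3000-containing antibody.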 In general terms: SPR reads the build-up and loss of mass on a sensor chip optically.
B1: the “ratio of amount bound vs unaltered GLS3000” value (shortened to “ratio of amount bound”) amounted to 0.33.

B2: the “ratio of amount bound” value was 0.77. In the case of B3, the “ratio of amount bound” value was 1.12. As to B4, the “ratio of amount bound” value was 1.16.

Take B5: the “ratio of amount bound” value turned out to be 1.05.

Take B6: the “ratio of amount bound” value came to 0.71.
